Experimental data published in US20200109188A1 (AstraZeneca / MedImmune, published 2020).

Assays:
[1] = molecular target: HA of A/Fort Monmouth/1/47 (H1N1) virus (influenza A virus); assay: cell-based or functional assay
[2] = molecular target: HA of ca A/Texas/36/91 (H1N1) virus (influenza A virus); assay: cell-based or functional assay
[3] = molecular target: HA of ca A/Vietnam/1203/04 (H5N1) virus (influenza A virus); assay: cell-based or functional assay
[4] = molecular target: HA of ca A/Hong Kong/213/03 (H5N1) virus (influenza A virus); assay: cell-based or functional assay
[5] = molecular target: HA of ca A/teal/Hong Kong/W312/97 (H6N1) virus (influenza A virus); assay: cell-based or functional assay
[6] = molecular target: HA of ca A/chicken/Hong Kong/G9/97 (H9N2) virus (influenza A virus); assay: cell-based or functional assay
[7] = molecular target: HA of A/Victoria/3/75 (H3N2) virus (influenza A virus, UniProt P03435 17-567); assay: cell-based or functional assay
Chain of HA of A/Victoria/3/75 (H3N2) virus (P03435 17-567 limits assumed): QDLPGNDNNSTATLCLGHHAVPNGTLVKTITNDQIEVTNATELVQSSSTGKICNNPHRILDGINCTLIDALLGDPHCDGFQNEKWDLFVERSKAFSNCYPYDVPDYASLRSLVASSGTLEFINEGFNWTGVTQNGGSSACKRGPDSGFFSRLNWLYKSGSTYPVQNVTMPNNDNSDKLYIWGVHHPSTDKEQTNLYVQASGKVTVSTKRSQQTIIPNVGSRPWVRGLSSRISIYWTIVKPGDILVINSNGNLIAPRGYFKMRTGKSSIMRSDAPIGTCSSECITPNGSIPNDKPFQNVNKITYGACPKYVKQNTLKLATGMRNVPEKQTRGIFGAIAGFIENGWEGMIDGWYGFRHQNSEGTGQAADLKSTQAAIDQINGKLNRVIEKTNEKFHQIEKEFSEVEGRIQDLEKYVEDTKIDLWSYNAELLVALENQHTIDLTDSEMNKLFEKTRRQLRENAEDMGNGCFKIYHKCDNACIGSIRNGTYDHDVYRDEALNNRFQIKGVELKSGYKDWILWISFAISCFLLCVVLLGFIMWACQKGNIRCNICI

[8] = molecular target: HA of ca A/Sydney/5/97 (H3N2) virus (influenza A virus); assay: cell-based or functional assay
[9] = molecular target: HA of A/Wyoming/03/03 (H3N2) virus (influenza A virus); assay: cell-based or functional assay
[10] = molecular target: HA of A/Wisconsin/67/05 (H3N2) virus (influenza A virus); assay: cell-based or functional assay
[11] = molecular target: HA of ca A/Perth/16/09 (H3N2) virus (influenza A virus); assay: cell-based or functional assay
[12] = molecular target: HA of ca A/Brit. Columbia/CN-6/04 (H7N3-LP) virus (influenza A virus); assay: cell-based or functional assay
[13] = molecular target: HA subtype H12 (A/duck/Alberta/60/76 (H12N5)) on HEK cells (influenza A virus, UniProt P03446 17-564); assay: flow cytometry, HA-transfected HEK cells
Chain of HA subtype H12 (A/duck/Alberta/60/76 (H12N5)) on HEK cells (P03446 17-564): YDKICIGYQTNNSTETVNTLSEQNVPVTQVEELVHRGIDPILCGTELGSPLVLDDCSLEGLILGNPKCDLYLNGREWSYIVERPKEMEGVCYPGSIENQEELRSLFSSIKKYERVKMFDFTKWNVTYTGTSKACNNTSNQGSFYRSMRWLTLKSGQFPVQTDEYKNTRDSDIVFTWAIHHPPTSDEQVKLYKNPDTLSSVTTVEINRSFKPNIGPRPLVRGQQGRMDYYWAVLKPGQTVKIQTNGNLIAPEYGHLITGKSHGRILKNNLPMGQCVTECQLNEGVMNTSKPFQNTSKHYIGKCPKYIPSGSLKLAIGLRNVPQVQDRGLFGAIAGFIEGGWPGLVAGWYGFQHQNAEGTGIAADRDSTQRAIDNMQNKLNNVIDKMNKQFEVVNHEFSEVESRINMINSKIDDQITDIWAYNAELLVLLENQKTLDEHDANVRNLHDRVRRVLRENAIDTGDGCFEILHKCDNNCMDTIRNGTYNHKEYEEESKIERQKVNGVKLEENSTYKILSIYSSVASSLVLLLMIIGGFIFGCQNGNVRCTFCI

B1: Antibody 3 (antibody, V domains shown)
VH: QVQLQESGPGLVKPSQTLSLTCAISGDSVSSNNAVWNWIRQSPSRGLEWLGRTYYRSKWYNDYAESVKSRITVNPDTSKNQFSLHLKSVTPEDTAVFYCVRSGHITVFGVNVDAFDMWGQGTMVTVSS
VL: DIQMTQSPSSLSASVGDRVTITCRTSQSLSSYLHWYQQKPGKAPKLLIYAASSLQSGVPSRFSGSGSGTDFTLTISSLQPEDFATYYCQQSRTFGQGTKVEIK
Neutralization IC50, H1-FM47 [1]: 0.92 µg/mL | Neutralization IC50, H1-TX91 [2]: 0.6 µg/mL | Neutralization IC50, H5-VM04 [3]: 2.11 µg/mL | Neutralization IC50, H5-HK03 [4]: 4.64 µg/mL | Neutralization IC50, H6-HK97 [5]: 1.77 µg/mL | Neutralization IC50, H9-HK97 [6]: 1.79 µg/mL | Neutralization IC50, H3-Vic75 [7]: 0.75 µg/mL | Neutralization IC50, H3-Syd97 [8]: 3.75 µg/mL | Neutralization IC50, H3-Wy03 [9]: 0.63 µg/mL | Neutralization IC50, H3-Wl05 [10]: 2.44 µg/mL | Neutralization IC50, H3-Perth09 [11]: 1.49 µg/mL | Neutralization IC50, H7-BC04 [12]: 4.72 µg/mL | binding result [13]: no binding (tested: 5 ug/ml)
